According to patent US20250042956A1:

What was measured:
[1] = target: AT1G22950.1 ICU11 (Arabidopsis thaliana) (UniProt Q3ED68); test: IP-MS rep 1
[2] = target: AT3G10480.3 NAC050 (Arabidopsis thaliana) (UniProt Q9SQX9); test: IP-MS rep 1
[3] = target: AT3G10490.2 NAC052 (Arabidopsis thaliana) (UniProt Q9SQY0); test: IP-MS rep 1
[4] = target: AT3G18210.1 CP2 (Arabidopsis thaliana) (UniProt P0DO23); test: IP-MS rep 1
[5] = target: AT3G20740.1 FIE (Arabidopsis thaliana) (UniProt Q9LT47); test: IP-MS rep 1
Sequence of AT3G20740.1 FIE (Arabidopsis thaliana) (Q9LT47 whole entry): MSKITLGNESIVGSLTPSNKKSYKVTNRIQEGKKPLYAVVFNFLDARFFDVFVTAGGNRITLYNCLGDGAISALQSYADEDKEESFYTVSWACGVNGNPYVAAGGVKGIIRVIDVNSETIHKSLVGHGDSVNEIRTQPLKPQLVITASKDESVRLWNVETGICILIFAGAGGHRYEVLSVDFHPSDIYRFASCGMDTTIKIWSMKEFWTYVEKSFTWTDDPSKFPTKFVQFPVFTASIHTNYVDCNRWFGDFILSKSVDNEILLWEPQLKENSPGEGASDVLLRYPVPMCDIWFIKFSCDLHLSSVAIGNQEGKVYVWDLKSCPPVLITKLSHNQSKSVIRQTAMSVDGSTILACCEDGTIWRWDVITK

[6] = target: AT5G11530.1 EMF1 (Arabidopsis thaliana) (UniProt Q9LYD9); test: IP-MS rep 1
Sequence of AT5G11530.1 EMF1 (Arabidopsis thaliana) (Q9LYD9 whole entry): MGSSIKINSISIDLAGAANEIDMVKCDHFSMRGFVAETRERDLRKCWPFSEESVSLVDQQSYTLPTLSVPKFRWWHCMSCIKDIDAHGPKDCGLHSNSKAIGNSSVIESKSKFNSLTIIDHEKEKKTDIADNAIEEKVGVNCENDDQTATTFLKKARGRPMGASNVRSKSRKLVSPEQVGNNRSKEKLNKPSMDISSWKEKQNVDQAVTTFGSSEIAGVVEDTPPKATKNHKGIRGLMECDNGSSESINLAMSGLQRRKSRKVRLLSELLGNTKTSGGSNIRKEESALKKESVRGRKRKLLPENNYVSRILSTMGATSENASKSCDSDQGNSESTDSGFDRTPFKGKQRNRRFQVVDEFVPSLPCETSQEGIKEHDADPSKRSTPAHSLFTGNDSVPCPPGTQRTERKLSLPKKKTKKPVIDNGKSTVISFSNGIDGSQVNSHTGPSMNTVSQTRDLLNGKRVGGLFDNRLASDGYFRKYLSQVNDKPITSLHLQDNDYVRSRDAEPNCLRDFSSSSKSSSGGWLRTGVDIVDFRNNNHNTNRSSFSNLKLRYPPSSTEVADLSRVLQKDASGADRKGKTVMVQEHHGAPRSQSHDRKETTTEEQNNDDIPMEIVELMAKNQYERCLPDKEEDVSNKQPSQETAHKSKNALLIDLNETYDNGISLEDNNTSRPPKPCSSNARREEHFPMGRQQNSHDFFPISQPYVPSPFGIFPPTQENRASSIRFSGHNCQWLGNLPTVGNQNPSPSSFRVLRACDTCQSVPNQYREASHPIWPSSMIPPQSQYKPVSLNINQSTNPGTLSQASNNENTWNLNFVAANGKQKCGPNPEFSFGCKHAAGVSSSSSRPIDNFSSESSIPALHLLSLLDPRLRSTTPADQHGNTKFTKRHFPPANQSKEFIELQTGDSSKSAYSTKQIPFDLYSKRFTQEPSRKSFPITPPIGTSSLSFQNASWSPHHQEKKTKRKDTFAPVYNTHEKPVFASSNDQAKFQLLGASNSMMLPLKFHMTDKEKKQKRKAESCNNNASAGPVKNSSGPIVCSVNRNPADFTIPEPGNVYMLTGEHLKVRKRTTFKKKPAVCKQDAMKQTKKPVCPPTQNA

[7] = target: AT5G58230.1 MSI1 (Arabidopsis thaliana) (UniProt O22467); test: IP-MS rep 1
Sequence of AT5G58230.1 MSI1 (Arabidopsis thaliana) (O22467 whole entry): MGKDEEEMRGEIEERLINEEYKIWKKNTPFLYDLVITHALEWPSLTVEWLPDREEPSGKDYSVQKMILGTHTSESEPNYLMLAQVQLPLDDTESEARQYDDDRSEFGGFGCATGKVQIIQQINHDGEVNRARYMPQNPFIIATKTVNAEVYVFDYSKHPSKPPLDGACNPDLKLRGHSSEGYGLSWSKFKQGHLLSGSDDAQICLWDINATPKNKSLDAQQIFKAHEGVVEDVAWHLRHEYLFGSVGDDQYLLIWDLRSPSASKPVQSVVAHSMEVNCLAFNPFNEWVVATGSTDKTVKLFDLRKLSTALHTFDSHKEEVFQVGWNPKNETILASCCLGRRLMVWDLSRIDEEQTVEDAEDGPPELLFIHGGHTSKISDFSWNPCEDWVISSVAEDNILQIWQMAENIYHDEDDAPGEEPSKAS

[8] = target: T1, AT5G67580.1 TRB2 (Arabidopsis thaliana) (UniProt Q9FJW5); test: IP-MS rep 1
T1 sequence: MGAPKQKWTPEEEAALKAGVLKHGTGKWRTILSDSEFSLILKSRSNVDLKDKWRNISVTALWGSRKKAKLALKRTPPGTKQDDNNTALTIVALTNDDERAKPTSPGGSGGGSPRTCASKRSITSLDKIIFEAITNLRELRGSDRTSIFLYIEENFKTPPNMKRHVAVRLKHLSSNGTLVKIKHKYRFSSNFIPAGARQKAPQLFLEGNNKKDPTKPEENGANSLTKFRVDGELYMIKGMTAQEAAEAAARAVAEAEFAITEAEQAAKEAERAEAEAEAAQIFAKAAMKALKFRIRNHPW

[9] = target: AT1G22950.1 ICU11 (Arabidopsis thaliana) (UniProt Q3ED68); test: IP-MS rep 2
[10] = target: AT3G10480.3 NAC050 (Arabidopsis thaliana) (UniProt Q9SQX9); test: IP-MS rep 2
[11] = target: AT3G10490.2 NAC052 (Arabidopsis thaliana) (UniProt Q9SQY0); test: IP-MS rep 2
[12] = target: AT3G18210.1 CP2 (Arabidopsis thaliana) (UniProt P0DO23); test: IP-MS rep 2
[13] = target: AT3G20740.1 FIE (Arabidopsis thaliana) (UniProt Q9LT47); test: IP-MS rep 2
[14] = target: AT5G11530.1 EMF1 (Arabidopsis thaliana) (UniProt Q9LYD9); test: IP-MS rep 2
[15] = target: AT5G58230.1 MSI1 (Arabidopsis thaliana) (UniProt O22467); test: IP-MS rep 2
[16] = target: T1, AT5G67580.1 TRB2 (Arabidopsis thaliana); test: IP-MS rep 2
[17] = target: AT1G22950.1 ICU11 (Arabidopsis thaliana) (UniProt Q3ED68); test: X-link IP-MS
[18] = target: AT3G10480.3 NAC050 (Arabidopsis thaliana) (UniProt Q9SQX9); test: X-link IP-MS
[19] = target: AT3G10490.2 NAC052 (Arabidopsis thaliana) (UniProt Q9SQY0); test: X-link IP-MS
[20] = target: AT3G18210.1 CP2 (Arabidopsis thaliana) (UniProt P0DO23); test: X-link IP-MS
[21] = target: AT3G20740.1 FIE (Arabidopsis thaliana) (UniProt Q9LT47); test: X-link IP-MS
[22] = target: AT5G11530.1 EMF1 (Arabidopsis thaliana) (UniProt Q9LYD9); test: X-link IP-MS
[23] = target: AT5G58230.1 MSI1 (Arabidopsis thaliana) (UniProt O22467); test: X-link IP-MS
[24] = target: T1, AT5G67580.1 TRB2 (Arabidopsis thaliana); test: X-link IP-MS
[25] = target: AT1G49950.3 TRB1 (Arabidopsis thaliana) (UniProt Q8VWK4); test: IP-MS rep 1
Sequence of AT1G49950.3 TRB1 (Arabidopsis thaliana) (Q8VWK4 whole entry): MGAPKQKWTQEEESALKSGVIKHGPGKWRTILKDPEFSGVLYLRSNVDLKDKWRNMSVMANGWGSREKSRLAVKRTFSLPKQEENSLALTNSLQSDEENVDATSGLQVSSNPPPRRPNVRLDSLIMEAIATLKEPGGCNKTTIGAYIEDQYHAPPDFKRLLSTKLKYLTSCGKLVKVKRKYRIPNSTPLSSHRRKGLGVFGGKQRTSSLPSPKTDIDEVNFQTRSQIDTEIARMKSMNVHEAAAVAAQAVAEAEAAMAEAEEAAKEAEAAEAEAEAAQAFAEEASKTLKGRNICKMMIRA

[26] = target: AT2G23380.1 CLF (Arabidopsis thaliana) (UniProt P93831); test: IP-MS rep 1
Sequence of AT2G23380.1 CLF (Arabidopsis thaliana) (P93831 whole entry): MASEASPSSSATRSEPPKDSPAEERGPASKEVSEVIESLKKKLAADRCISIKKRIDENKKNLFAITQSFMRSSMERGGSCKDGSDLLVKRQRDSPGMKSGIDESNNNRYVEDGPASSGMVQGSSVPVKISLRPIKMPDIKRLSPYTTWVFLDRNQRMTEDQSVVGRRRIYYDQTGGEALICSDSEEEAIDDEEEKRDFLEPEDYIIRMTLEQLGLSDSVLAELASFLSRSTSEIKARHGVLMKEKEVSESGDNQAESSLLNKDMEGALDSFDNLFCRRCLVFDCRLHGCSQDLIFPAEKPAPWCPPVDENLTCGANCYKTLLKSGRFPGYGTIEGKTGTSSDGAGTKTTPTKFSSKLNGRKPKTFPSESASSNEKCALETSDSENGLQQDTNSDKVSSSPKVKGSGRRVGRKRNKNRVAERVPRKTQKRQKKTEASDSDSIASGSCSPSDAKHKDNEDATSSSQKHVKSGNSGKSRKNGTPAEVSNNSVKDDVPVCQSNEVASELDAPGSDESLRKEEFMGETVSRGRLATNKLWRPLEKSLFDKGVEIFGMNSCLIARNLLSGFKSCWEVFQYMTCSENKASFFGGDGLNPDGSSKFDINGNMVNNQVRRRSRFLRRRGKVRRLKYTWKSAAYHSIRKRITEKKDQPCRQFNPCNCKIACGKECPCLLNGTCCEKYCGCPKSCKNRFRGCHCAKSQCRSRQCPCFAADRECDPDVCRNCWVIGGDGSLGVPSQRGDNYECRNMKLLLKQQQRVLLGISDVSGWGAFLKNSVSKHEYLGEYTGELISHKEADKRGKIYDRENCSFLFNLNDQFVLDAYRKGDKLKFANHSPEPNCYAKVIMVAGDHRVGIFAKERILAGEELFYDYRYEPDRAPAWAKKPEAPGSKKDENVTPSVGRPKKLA

[27] = target: T2, AT4G02020.1 SWN (Arabidopsis thaliana) (UniProt Q9ZSM8); test: IP-MS rep 1
T2 sequence (looked up): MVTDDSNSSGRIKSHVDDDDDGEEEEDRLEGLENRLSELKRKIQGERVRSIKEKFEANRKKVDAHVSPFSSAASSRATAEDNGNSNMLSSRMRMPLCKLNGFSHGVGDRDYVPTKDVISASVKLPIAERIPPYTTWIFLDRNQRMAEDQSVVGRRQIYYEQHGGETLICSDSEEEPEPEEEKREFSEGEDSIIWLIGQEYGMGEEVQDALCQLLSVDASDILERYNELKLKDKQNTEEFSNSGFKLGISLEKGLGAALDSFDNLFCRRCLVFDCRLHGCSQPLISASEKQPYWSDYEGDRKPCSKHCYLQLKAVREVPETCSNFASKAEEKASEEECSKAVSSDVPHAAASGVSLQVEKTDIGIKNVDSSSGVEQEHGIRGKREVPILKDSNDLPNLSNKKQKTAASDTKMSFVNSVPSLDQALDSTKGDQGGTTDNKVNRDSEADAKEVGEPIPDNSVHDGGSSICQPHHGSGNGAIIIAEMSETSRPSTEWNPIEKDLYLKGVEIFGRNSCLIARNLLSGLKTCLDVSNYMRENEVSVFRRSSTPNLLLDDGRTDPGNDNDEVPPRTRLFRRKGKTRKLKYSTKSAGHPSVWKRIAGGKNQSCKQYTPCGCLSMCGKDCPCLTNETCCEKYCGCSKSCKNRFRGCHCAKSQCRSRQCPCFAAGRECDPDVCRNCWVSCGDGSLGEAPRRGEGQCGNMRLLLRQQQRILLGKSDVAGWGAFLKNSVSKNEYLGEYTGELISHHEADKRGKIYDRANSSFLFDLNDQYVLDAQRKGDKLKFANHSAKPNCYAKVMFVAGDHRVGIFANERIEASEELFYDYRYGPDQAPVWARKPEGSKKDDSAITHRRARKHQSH

[28] = target: T3, AT5G17690.1 LHP1 (Arabidopsis thaliana) (UniProt Q946J8); test: IP-MS rep 1
T3 sequence: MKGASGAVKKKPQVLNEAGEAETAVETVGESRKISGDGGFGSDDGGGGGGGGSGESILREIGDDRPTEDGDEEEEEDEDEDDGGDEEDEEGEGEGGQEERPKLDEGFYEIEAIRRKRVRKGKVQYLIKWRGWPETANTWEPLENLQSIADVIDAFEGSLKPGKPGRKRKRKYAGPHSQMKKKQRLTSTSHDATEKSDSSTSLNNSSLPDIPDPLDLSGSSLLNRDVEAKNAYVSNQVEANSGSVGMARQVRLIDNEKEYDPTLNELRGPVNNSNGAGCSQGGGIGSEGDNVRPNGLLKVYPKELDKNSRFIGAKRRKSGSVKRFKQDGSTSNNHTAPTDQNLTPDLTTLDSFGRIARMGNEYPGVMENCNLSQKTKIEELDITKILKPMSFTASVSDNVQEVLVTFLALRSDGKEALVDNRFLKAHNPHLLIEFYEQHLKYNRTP

[29] = target: AT5G51230.1 EMF2 (Arabidopsis thaliana) (UniProt Q8L6Y4); test: IP-MS rep 1
Sequence of AT5G51230.1 EMF2 (Arabidopsis thaliana) (Q8L6Y4 whole entry): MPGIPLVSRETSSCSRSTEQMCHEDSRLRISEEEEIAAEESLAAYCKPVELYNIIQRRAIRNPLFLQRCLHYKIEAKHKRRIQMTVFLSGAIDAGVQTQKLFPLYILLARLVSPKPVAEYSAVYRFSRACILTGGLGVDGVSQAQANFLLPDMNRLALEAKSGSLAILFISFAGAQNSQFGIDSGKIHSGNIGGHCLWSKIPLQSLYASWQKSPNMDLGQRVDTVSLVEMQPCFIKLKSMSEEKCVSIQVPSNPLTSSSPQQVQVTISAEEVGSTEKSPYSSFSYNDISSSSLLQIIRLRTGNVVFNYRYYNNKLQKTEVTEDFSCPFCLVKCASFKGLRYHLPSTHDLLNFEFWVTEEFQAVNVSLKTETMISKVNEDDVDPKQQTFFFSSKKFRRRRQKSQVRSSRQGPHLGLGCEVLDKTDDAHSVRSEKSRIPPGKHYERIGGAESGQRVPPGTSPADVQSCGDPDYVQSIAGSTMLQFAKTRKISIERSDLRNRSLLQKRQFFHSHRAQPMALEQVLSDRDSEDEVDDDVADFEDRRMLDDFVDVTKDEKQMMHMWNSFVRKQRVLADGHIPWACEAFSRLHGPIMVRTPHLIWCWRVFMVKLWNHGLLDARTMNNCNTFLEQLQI

[30] = target: AT1G49950.3 TRB1 (Arabidopsis thaliana) (UniProt Q8VWK4); test: IP-MS rep 2
[31] = target: AT2G23380.1 CLF (Arabidopsis thaliana) (UniProt P93831); test: IP-MS rep 2
[32] = target: T2, AT4G02020.1 SWN (Arabidopsis thaliana); test: IP-MS rep 2
[33] = target: T3, AT5G17690.1 LHP1 (Arabidopsis thaliana); test: IP-MS rep 2
[34] = target: AT5G51230.1 EMF2 (Arabidopsis thaliana) (UniProt Q8L6Y4); test: IP-MS rep 2
[35] = target: AT1G49950.3 TRB1 (Arabidopsis thaliana) (UniProt Q8VWK4); test: X-link IP-MS
[36] = target: AT2G23380.1 CLF (Arabidopsis thaliana) (UniProt P93831); test: X-link IP-MS
[37] = target: T2, AT4G02020.1 SWN (Arabidopsis thaliana); test: X-link IP-MS
[38] = target: T3, AT5G17690.1 LHP1 (Arabidopsis thaliana); test: X-link IP-MS
[39] = target: AT5G51230.1 EMF2 (Arabidopsis thaliana) (UniProt Q8L6Y4); test: X-link IP-MS
[40] = target: AT4G20400.1 JMJ14 (Arabidopsis thaliana) (UniProt Q8GUI6); test: IP-MS rep 1
[41] = target: AT4G38130.1 HDA19 (Arabidopsis thaliana) (UniProt O22446); test: IP-MS rep 1
[42] = target: AT5G63110.1 HDA6 (Arabidopsis thaliana) (UniProt Q9FML2); test: IP-MS rep 1
Sequence of AT5G63110.1 HDA6 (Arabidopsis thaliana) (Q9FML2 whole entry): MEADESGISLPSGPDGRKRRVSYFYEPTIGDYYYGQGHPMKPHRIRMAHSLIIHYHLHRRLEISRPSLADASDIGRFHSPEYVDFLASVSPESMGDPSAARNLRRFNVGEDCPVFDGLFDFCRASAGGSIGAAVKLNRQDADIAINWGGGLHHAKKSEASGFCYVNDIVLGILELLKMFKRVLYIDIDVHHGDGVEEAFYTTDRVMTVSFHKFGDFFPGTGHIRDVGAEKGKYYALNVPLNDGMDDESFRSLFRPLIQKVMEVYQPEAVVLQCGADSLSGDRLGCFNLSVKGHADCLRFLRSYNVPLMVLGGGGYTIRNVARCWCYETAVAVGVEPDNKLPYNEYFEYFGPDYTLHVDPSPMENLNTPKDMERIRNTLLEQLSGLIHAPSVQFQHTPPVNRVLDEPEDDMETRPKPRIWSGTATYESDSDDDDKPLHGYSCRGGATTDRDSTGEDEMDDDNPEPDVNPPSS

[43] = target: AT4G20400.1 JMJ14 (Arabidopsis thaliana) (UniProt Q8GUI6); test: IP-MS rep 2
[44] = target: AT4G38130.1 HDA19 (Arabidopsis thaliana) (UniProt O22446); test: IP-MS rep 2
[45] = target: AT5G63110.1 HDA6 (Arabidopsis thaliana) (UniProt Q9FML2); test: IP-MS rep 2

Sequence of AT3G10490.2 NAC052 (Arabidopsis thaliana) (Q9SQY0 whole entry): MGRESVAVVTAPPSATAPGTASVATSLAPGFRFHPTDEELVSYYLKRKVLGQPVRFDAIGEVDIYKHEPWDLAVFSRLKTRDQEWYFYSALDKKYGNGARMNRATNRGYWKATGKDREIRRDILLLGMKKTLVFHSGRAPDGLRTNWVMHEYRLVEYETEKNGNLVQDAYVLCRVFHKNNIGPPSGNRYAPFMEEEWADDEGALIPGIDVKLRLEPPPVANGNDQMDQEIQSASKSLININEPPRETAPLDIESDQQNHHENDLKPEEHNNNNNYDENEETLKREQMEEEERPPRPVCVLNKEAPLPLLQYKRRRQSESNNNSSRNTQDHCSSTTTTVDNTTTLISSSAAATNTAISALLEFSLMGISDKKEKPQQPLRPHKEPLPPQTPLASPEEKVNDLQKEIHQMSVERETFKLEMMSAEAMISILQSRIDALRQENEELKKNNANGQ

Row | IP-MS count [1] | IP-MS count [2] | IP-MS count [3] | IP-MS count [4] | IP-MS count [5] | IP-MS count [6] | IP-MS count [7] | IP-MS count [9] | IP-MS count [10] | IP-MS count [11] | IP-MS count [12] | IP-MS count [13] | IP-MS count [14] | IP-MS count [15] | IP-MS count [17] | IP-MS count [18] | IP-MS count [19] | IP-MS count [20] | IP-MS count [27] | IP-MS count [32] | Substance | also measured
1 | 75 | 33 | 103 | 13 | 1 | 3 | 11 | 79 | 35 | 103 | 17 | 3 | 2 | 12 | 27 | 40 | 55 | 11 | – | – | FLAG-TRB1 (from UniProt Q8VWK4 1-300) | IP-MS count [8]: 0; IP-MS count [16]: 0; IP-MS count [21]: 5; IP-MS count [22]: 11; IP-MS count [23]: 12; IP-MS count [24]: 2
2 | 53 | 1 | 11 | 4 | 30 | 55 | 26 | 50 | 1 | 22 | 5 | 28 | 56 | 21 | 33 | 39 | 55 | 17 | 11 | 12 | FLAG-TRB2 (from UniProt Q9FJW5 1-299) | IP-MS count [25]: 0; IP-MS count [26]: 5; IP-MS count [28]: 15; IP-MS count [29]: 10; IP-MS count [30]: 4; IP-MS count [31]: 5; IP-MS count [33]: 15; IP-MS count [34]: 15; IP-MS count [35]: 10; IP-MS count [36]: 15; IP-MS count [21]: 35; IP-MS count [37]: 33; IP-MS count [22]: 90; IP-MS count [38]: 17; IP-MS count [39]: 27; IP-MS count [23]: 30
3 | 79 | 5 | 24 | 38 | 34 | 81 | 37 | 73 | 4 | 28 | 31 | 41 | 83 | 35 | 37 | 39 | 59 | 12 | 16 | 24 | FLAG-TRB3 (from UniProt Q9M2X3 1-295) | IP-MS count [25]: 0; IP-MS count [26]: 15; IP-MS count [28]: 15; IP-MS count [29]: 23; IP-MS count [30]: 0; IP-MS count [31]: 19; IP-MS count [33]: 19; IP-MS count [34]: 23; IP-MS count [35]: 9; IP-MS count [36]: 19; IP-MS count [21]: 34; IP-MS count [37]: 36; IP-MS count [22]: 104; IP-MS count [38]: 18; IP-MS count [39]: 29; IP-MS count [23]: 31
4 | 32 | – | 10 | – | 22 | 36 | 20 | 19 | – | 2 | – | 3 | 7 | 9 | – | – | – | – | 15 | 6 | TRBIP1 (bait of the TRBIP1 IP-MS) | IP-MS count [26]: 7; IP-MS count [40]: 7; IP-MS count [41]: 4; IP-MS count [28]: 14; IP-MS count [29]: 10; IP-MS count [42]: 7; IP-MS count [31]: 0; IP-MS count [43]: 0; IP-MS count [44]: 3; IP-MS count [33]: 8; IP-MS count [34]: 3; IP-MS count [45]: 5
5 | 16 | – | 4 | – | – | 4 | 3 | 4 | – | 0 | – | – | 0 | 0 | – | – | – | – | 3 | 0 | TRBIP2 (bait of the TRBIP2 IP-MS) | IP-MS count [40]: 3; IP-MS count [41]: 4; IP-MS count [42]: 10; IP-MS count [43]: 0; IP-MS count [44]: 1; IP-MS count [45]: 3
